tested on: Escherichia coli TOP10; test: shrunken log2 fold change of peptide-encoding DNA abundance (4.5 h post-induction vs induction); higher = less antimicrobial activity (less host growth inhibition); conditions: time post-induction: 4.5 h; library: site-saturation at positions 5, 18, 19, 20
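Also: peptides expressed intracellularly from a pBAD plasmid library in pooled LB shake-flask culture, induced with 0.3% L-arabinose, DNA abundance read by NGS, three biological replicates, DESeq2 with apeglm shrinkage.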

| Sequence | shrunken log2 fold change |
| --- | --- |
| RRIRKRPPRLPRPRPRPQCTPRP | -0.0504 |
| RRIRNRPPRLPRPRPRPREFPRP | 0.306 |
| RRIRNRPPRLPRPRPRPCELPRP | -0.0966 |
| RRIRKRPPRLPRPRPRPWVVPRP | 0.423 |
| RRIRVRPPRLPRPRPRPFPGPRP | 0.03 |
| RRIRQRPPRLPRPRPRPETQPRP | 0.0133 |
| RRIRPRPPRLPRPRPRPADHPRP | -0.015 |
| RRIRMRPPRLPRPRPRPGPHPRP | 0.256 |
| RRIRRRPPRLPRPRPRPFQPPRP | 0.331 |
| RRIRRRPPRLPRPRPRPCEPPRP | -0.0751 |
| RRIRPRPPRLPRPRPRPVLTPRP | 0.0816 |
| RRIRKRPPRLPRPRPRPLWCPRP | 0.0281 |
| RRIRMRPPRLPRPRPRPINAPRP | -0.0931 |
| RRIRVRPPRLPRPRPRPQSFPRP | -0.111 |
| RRIRGRPPRLPRPRPRPATMPRP | 0.44 |
| RRIRSRPPRLPRPRPRPTKHPRP | -0.151 |
| RRIRMRPPRLPRPRPRPYTEPRP | -0.245 |
| RRIRQRPPRLPRPRPRPQYVPRP | 0.0318 |
| RRIRHRPPRLPRPRPRPQLGPRP | 0.375 |
| RRIRFRPPRLPRPRPRPTLQPRP | -0.107 |
| RRIRSRPPRLPRPRPRPHKFPRP | 0.00286 |
| RRIRSRPPRLPRPRPRPEMHPRP | 0.0756 |
| RRIRARPPRLPRPRPRPTFQPRP | 0.529 |
| RRIRWRPPRLPRPRPRPRQEPRP | 0.0591 |
| RRIRTRPPRLPRPRPRPILVPRP | -0.0468 |

| Sequence | shrunken log2 fold change |
| --- | --- |
| RRIRMRPPRLPRPRPRPSLAPRP | 0.566 |
| RRIRQRPPRLPRPRPRPNQAPRP | -0.0235 |
| RRIRSRPPRLPRPRPRPEYLPRP | -0.0519 |
| RRIRARPPRLPRPRPRPVNTPRP | -0.0807 |
| RRIRWRPPRLPRPRPRPVTWPRP | -0.017 |
| RRIRTRPPRLPRPRPRPWKFPRP | -0.0178 |
| RRIRARPPRLPRPRPRPMCTPRP | -0.0696 |
| RRIRIRPPRLPRPRPRPGGAPRP | 0.288 |
| RRIRIRPPRLPRPRPRPPEPPRP | 0.105 |
| RRIRPRPPRLPRPRPRPWLYPRP | -0.0765 |
| RRIRARPPRLPRPRPRPRNWPRP | 0.388 |
| RRIRGRPPRLPRPRPRPEEKPRP | 1.66 |
| RRIRARPPRLPRPRPRPHKIPRP | -0.0893 |
| RRIRWRPPRLPRPRPRPHYGPRP | -0.0711 |
| RRIRVRPPRLPRPRPRPWGLPRP | -0.159 |
| RRIRKRPPRLPRPRPRPVECPRP | 0.22 |
| RRIRNRPPRLPRPRPRPLYIPRP | -0.826 |
| RRIRLRPPRLPRPRPRPDAWPRP | 0.457 |
| RRIRKRPPRLPRPRPRPMGLPRP | -0.000777 |
| RRIRKRPPRLPRPRPRPHEHPRP | 0.0272 |
| RRIRVRPPRLPRPRPRPNWDPRP | -0.0621 |
| RRIRKRPPRLPRPRPRPRRVPRP | 0.569 |
| RRIRGRPPRLPRPRPRPGRAPRP | 0.84 |
| RRIRRRPPRLPRPRPRPYPYPRP | -0.0951 |
| RRIRPRPPRLPRPRPRPSSWPRP | 0.104 |

| Sequence | shrunken log2 fold change |
| --- | --- |
| RRIRERPPRLPRPRPRPAHFPRP | 0.0793 |
| RRIRQRPPRLPRPRPRPFMSPRP | -0.0241 |
| RRIRWRPPRLPRPRPRPLMQPRP | 0.217 |
| RRIRARPPRLPRPRPRPDDFPRP | -0.013 |
| RRIRKRPPRLPRPRPRPARWPRP | 0.464 |
| RRIRKRPPRLPRPRPRPMVHPRP | -0.079 |
| RRIRYRPPRLPRPRPRPPNCPRP | -0.236 |
| RRIRHRPPRLPRPRPRPDSIPRP | -0.0212 |
| RRIRGRPPRLPRPRPRPEFEPRP | 0.612 |
| RRIRIRPPRLPRPRPRPARHPRP | 0.0869 |
| RRIRQRPPRLPRPRPRPWYHPRP | -0.32 |
| RRIRQRPPRLPRPRPRPDHWPRP | -0.368 |
| RRIRRRPPRLPRPRPRPTKCPRP | 0.114 |
| RRIRLRPPRLPRPRPRPCHMPRP | -0.0107 |
| RRIRSRPPRLPRPRPRPHTMPRP | -0.163 |
| RRIRIRPPRLPRPRPRPPNKPRP | -0.36 |
| RRIRPRPPRLPRPRPRPRWGPRP | 0.509 |
| RRIRARPPRLPRPRPRPLCPPRP | 0.0472 |
| RRIRNRPPRLPRPRPRPTAYPRP | -0.184 |
| RRIRFRPPRLPRPRPRPKEQPRP | -0.00277 |
| RRIRNRPPRLPRPRPRPAVIPRP | -0.277 |
| RRIRYRPPRLPRPRPRPNFNPRP | -0.818 |
| RRIRGRPPRLPRPRPRPYAEPRP | 1.19 |
| RRIRCRPPRLPRPRPRPASPPRP | 0.117 |
| RRIRNRPPRLPRPRPRPAVKPRP | -0.229 |

| Sequence | shrunken log2 fold change |
| --- | --- |
| RRIRQRPPRLPRPRPRPHYIPRP | -0.298 |
| RRIRGRPPRLPRPRPRPTLNPRP | 0.835 |
| RRIRRRPPRLPRPRPRPGQIPRP | 0.0802 |
| RRIRNRPPRLPRPRPRPKPYPRP | -0.342 |
| RRIRERPPRLPRPRPRPHEKPRP | -0.00663 |
| RRIRFRPPRLPRPRPRPLNYPRP | -0.755 |
| RRIRCRPPRLPRPRPRPDCYPRP | -0.0924 |
| RRIRGRPPRLPRPRPRPSDKPRP | 0.0485 |
| RRIRDRPPRLPRPRPRPLFPPRP | -0.116 |
| RRIRRRPPRLPRPRPRPAGCPRP | 0.437 |
| RRIRGRPPRLPRPRPRPSICPRP | 0.207 |
| RRIRTRPPRLPRPRPRPNPFPRP | -0.216 |
| RRIRCRPPRLPRPRPRPFPFPRP | -0.353 |
| RRIRYRPPRLPRPRPRPQQAPRP | -0.0122 |
| RRIRNRPPRLPRPRPRPPHSPRP | 0.183 |
| RRIRPRPPRLPRPRPRPRHEPRP | 0.0886 |
| RRIRYRPPRLPRPRPRPMKFPRP | -0.0276 |
| RRIRRRPPRLPRPRPRPGPQPRP | 0.337 |
| RRIRHRPPRLPRPRPRPYMFPRP | -0.319 |
| RRIRTRPPRLPRPRPRPYLRPRP | -0.163 |
| RRIRFRPPRLPRPRPRPTQDPRP | 0.33 |
| RRIRRRPPRLPRPRPRPVIQPRP | 0.177 |
| RRIRHRPPRLPRPRPRPSDWPRP | -0.327 |
| RRIRGRPPRLPRPRPRPACQPRP | 0.883 |
| RRIRCRPPRLPRPRPRPMLSPRP | -0.202 |

| Sequence | shrunken log2 fold change |
| --- | --- |
| RRIRARPPRLPRPRPRPPFIPRP | -0.103 |
| RRIRERPPRLPRPRPRPFVCPRP | -0.582 |
| RRIRNRPPRLPRPRPRPIWFPRP | 0.205 |
| RRIRVRPPRLPRPRPRPANRPRP | -0.179 |
| RRIRIRPPRLPRPRPRPWVPPRP | -0.28 |
| RRIRQRPPRLPRPRPRPIQWPRP | 0.34 |
| RRIRYRPPRLPRPRPRPRMDPRP | -0.0437 |
| RRIRCRPPRLPRPRPRPAALPRP | 0.219 |
| RRIRGRPPRLPRPRPRPNYAPRP | 0.0408 |
| RRIRARPPRLPRPRPRPAEWPRP | 0.245 |
| RRIRGRPPRLPRPRPRPRPQPRP | 0.863 |
| RRIRDRPPRLPRPRPRPTFPPRP | 0.0873 |
| RRIRCRPPRLPRPRPRPERNPRP | -0.223 |
| RRIRTRPPRLPRPRPRPVEAPRP | 0.0918 |
| RRIRGRPPRLPRPRPRPRADPRP | 1.17 |
| RRIRYRPPRLPRPRPRPQYEPRP | -0.565 |
| RRIRKRPPRLPRPRPRPCLAPRP | 0.433 |
| RRIRERPPRLPRPRPRPWALPRP | -0.144 |
| RRIRNRPPRLPRPRPRPQWCPRP | -0.0662 |
| RRIRSRPPRLPRPRPRPWDDPRP | -0.0242 |
| RRIRMRPPRLPRPRPRPPIAPRP | 0.826 |
| RRIRRRPPRLPRPRPRPHVVPRP | 0.0538 |
| RRIRRRPPRLPRPRPRPLRGPRP | 0.732 |
| RRIRNRPPRLPRPRPRPWWVPRP | -0.226 |
| RRIRMRPPRLPRPRPRPFDAPRP | 0.396 |

| Sequence | shrunken log2 fold change |
| --- | --- |
| RRIRDRPPRLPRPRPRPCDFPRP | 0.0384 |
| RRIRIRPPRLPRPRPRPKMHPRP | -0.299 |
| RRIRGRPPRLPRPRPRPCSCPRP | 0.105 |
| RRIRKRPPRLPRPRPRPKRFPRP | -0.0257 |
| RRIRERPPRLPRPRPRPRADPRP | 0.0209 |
| RRIRLRPPRLPRPRPRPIKYPRP | 0.0258 |
| RRIRDRPPRLPRPRPRPNKEPRP | 0.0313 |
| RRIRERPPRLPRPRPRPHQLPRP | 0.0377 |
| RRIRSRPPRLPRPRPRPCYAPRP | -0.478 |
| RRIRERPPRLPRPRPRPNQGPRP | -0.348 |
| RRIRPRPPRLPRPRPRPFCYPRP | -0.26 |
| RRIRGRPPRLPRPRPRPCGNPRP | 0.255 |
| RRIRYRPPRLPRPRPRPRNWPRP | -0.0364 |
| RRIRKRPPRLPRPRPRPAVFPRP | 0.271 |
| RRIRFRPPRLPRPRPRPSWPPRP | -0.0802 |
| RRIRPRPPRLPRPRPRPYFNPRP | -0.619 |
| RRIRDRPPRLPRPRPRPVEVPRP | 0.43 |
| RRIRGRPPRLPRPRPRPPYEPRP | 0.0264 |
| RRIRVRPPRLPRPRPRPTPMPRP | 0.259 |
| RRIRSRPPRLPRPRPRPGFSPRP | -0.0153 |
| RRIRHRPPRLPRPRPRPNMKPRP | -0.855 |
| RRIRFRPPRLPRPRPRPDYTPRP | -0.02 |
| RRIRERPPRLPRPRPRPWFHPRP | -0.421 |
| RRIRVRPPRLPRPRPRPEGHPRP | -0.0324 |
| RRIRQRPPRLPRPRPRPEWYPRP | 0.0539 |

Source: the supplement of paper PMC9112550, “Optimization of the antimicrobial peptide Bac7 by deep mutational scanning” (BMC Biology, 2022)
